The experiment deals with HLA-A*24. Briefly: UV peptide-exchange ELISA (anti-b2m); yield grade ++ = >20%. For orientation: In an ELISA, binding on a coated surface is turned into a signal by an enzyme label.

In turn, TQFFIPYTI (modifications not checked) [COL10-002] registered a peptide exchange yield of 20 to 50%.

Source of the values: US20190352359A1.
